The numbers were not newly measured in article PMC3089658, which cites them from elsewhere.

The series concerns the target CD25 (Homo sapiens) (UniProt P01589).
UniProt P01589, sequence (P01589 22-240): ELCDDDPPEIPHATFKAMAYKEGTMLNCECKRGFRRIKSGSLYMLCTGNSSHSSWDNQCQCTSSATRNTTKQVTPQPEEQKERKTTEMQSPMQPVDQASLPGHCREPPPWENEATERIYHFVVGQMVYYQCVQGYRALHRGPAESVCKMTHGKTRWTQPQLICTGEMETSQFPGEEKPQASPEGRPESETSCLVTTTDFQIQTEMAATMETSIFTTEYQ

For IL-2 (from UniProt P60568), the Kd is 0.01 µM.
